Data taken from paper PMC3279196 (Journal of Molecular Biology, 2011).
Like-named read-outs stand apart in the source and are kept apart here.

Columns and labels:
[1] = target: T1, CheW from Thermotoga maritima (T. maritima, UniProt Q56311 1-151); test: NMR titration
T1 sequence (looked up): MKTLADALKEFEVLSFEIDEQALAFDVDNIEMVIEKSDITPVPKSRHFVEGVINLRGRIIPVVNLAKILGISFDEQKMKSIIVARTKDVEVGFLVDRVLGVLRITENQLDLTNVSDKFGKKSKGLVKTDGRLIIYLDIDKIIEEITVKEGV

[2] = target: T1, CheW from Thermotoga maritima; test: NMR titration; remark: listed apart in the source
static light scattering = target: the molecule itself; test: static light scattering

Kd [1]: ~300 µM | Kd [2]: ~1200 µM
B1: TM0014(90-206) with N-terminal tyrosine and His5 tag (domain or fragment, T. maritima, UniProt Q7DFA3 90-206, looked up)
chain: KSGTNVDQIVERVKEASSQIGETLENIRSIEKLIQNIMRIARETNILALNATIEAARAGEAGKGFMIVANEVQNLSNETNEVTKQIVEKAREILESSQRSLENLEFMANLFETVGKT
stoichiometry N (static light scattering): 2
